Test results: patent US20210261685A1 (Alector, published 2021)

T1: human MerTK extracellular domain (ECD), recombinant (human, UniProt Q12866 21-505)
T1 construct: also called huMerTK; not shown: polyHis tag or TEVS/Thrombin/murine IgG2a Fc tag
T1 sequence: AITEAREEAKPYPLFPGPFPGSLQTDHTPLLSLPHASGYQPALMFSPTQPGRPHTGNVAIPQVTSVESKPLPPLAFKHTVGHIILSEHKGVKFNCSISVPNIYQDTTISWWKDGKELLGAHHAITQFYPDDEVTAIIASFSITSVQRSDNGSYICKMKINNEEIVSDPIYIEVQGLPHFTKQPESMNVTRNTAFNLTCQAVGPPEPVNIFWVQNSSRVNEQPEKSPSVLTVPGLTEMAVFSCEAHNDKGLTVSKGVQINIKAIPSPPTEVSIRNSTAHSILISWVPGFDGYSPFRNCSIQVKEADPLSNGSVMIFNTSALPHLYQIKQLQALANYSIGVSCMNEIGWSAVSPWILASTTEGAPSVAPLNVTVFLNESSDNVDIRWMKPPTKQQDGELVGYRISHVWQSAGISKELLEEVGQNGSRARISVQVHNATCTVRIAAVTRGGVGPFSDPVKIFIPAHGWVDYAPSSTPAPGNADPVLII

T2: cyno MerTK extracellular domain (ECD), recombinant (cynomolgus monkey, UniProt Q12866 21-505 (human entry))
T2 construct: also called cynomolgus MerTK; not shown: polyHis tag or TEVS/Thrombin/murine IgG2a Fc tag
T2 chain: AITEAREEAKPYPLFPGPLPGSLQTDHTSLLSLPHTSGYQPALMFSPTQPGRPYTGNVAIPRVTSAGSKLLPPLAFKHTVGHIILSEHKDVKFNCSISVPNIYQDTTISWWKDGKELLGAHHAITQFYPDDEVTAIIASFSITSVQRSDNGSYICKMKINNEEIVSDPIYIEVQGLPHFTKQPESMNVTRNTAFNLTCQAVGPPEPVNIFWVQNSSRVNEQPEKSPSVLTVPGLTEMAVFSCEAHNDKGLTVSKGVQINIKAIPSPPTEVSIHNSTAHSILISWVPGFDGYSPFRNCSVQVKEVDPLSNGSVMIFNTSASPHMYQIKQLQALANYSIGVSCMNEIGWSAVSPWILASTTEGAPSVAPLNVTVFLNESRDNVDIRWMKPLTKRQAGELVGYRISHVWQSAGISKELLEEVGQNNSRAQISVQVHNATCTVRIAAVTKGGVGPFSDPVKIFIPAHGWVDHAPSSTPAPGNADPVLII

T3: murine MerTK extracellular domain (ECD), recombinant (mouse, UniProt Q60805 19-497)
T3 construct: also called moMerTK; mouse MerTK; not shown: polyHis tag or TEVS/Thrombin/murine IgG2a Fc tag
T3 sequence: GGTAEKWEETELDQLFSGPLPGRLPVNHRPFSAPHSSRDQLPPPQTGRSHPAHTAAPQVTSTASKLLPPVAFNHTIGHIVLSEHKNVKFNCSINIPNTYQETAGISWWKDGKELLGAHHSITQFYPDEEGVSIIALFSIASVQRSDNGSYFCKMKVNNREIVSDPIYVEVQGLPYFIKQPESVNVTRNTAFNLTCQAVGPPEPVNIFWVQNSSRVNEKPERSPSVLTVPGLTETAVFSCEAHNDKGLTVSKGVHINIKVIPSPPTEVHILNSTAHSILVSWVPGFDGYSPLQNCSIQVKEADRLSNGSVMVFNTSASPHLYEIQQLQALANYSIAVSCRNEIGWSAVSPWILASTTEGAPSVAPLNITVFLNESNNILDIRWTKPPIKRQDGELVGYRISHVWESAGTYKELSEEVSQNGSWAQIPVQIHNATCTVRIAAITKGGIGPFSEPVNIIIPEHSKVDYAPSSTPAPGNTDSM


Tests used:
Test in all cases: SPR, Carterra LSA, antibody immobilised
[1] = target: T1, human MerTK extracellular domain (ECD), …
Method: (§1) Binding kinetics of humanized and affinity-matured anti-MerTK antibodies of the present disclosure to human, murine, and cynomolgus MerTK proteins were evaluated as follows. Briefly, anti-MerTK antibodies were prepared by diluting to 10 μg/ml in 10 mM Acetate, pH 4.25 (Carterra, Salt Lake City, Utah), at 300 μl/well. A HC200M sensor chip (Carterra) was activated using the single channel flow cell with a 7-minute injection of a 1:1:1 mixture of 100 mM MES pH 5.5, 100 mM sulfo-NHS, 400 mM EDC (all reconstituted in MES pH 5.5; 100 μl of each mixed in vial immediately before running assay). After switching to the multi-channel array flow cell, the antibodies were injected over the activated chip in a 96-spot array for 15 minutes. The remaining unconjugated active groups on the chip were then blocked by injecting 1M Ethanolamine pH 8.5 (Carterra) for 7 minutes using the single channel flow cell.
(§2) Estimates of affinity were generated by injecting each analyte over the entire antibody array using the single channel flow cell. MerTK analytes were diluted to 33.3, 100, and 300 nM in running buffer, and injected in serial from lowest to highest concentration without regeneration. Two buffer blanks were run between each series (one species per series). Data were processed and analyzed using NextGenKIT high-throughput kinetics analysis software (Carterra). In these experiments, the anti-MerTK antibodies were human IgG1 isotype containing the Fc variant LALAPS.
(§3) The equilibrium dissociation constants (KD) were then calculated from the fitted association and dissociation rate constants (k-on and k-off) for anti-MerTK antibodies of the present disclosure.

[2] = target: T2, cyno MerTK extracellular domain (ECD), …
Method: as §1, §2, §3

[3] = target: T3, murine MerTK extracellular domain …
Method: as §1, §2, §3

Row | Binder | Kd [1] [nM] | Kd [2] [nM] | Kd [3] [nM] | binding result [3]
1 | MTK-33.13 (antibody, human IgG1, V domains shown) VH: QVQLVQSGAEVKKPGASVKVSCKASGYTFTSYWMHWVRQAPGQGLEWIGVIDPSDNYINYNQKFQGRVTMTRDTSTSTVYMELSSLRSEDTAVYYCAREAGTRGYFDYWGQGTLVTVSS VL: DIQMTQSPSSLSASVGDRVTITCQASRSVSNTVAWYQQKPGKAPKLLIYYASNRYTGVPSRFSGSGSGTDFTFTISSLQPEDIATYYCQQDYRSPFTFGQGTKLEIK | 20 | 18 | 225 | 
2 | MTK-33.5 (antibody, human IgG1, V domains shown) VH: QVQLVQSGAEVKKPGASVKVSCMASGYTFGSYWMHWVRQAPGQGLEWIGVIDPSDNYINYNQKFQGRVTMTRDTSTSTVYMELSSLRSEDTAVYYCAREAGTRGYFDYWGQGTLVTVSS VL: DIQMTQSPSSLSASVGDRVTITCQASQSVSNTVAWYQQKPGKAPKLLIYYASNRETGVPSRFSGSGSGTDFTFTISSLQPEDIGTYYCQQDYRSPFTFGQGTKLEIK | 28 | 26 | 140 | 
3 | MTK-33.11 (antibody, human IgG1, V domains shown) VH: QVQLVQSGAEVKKPGASVKVSCKASGYTFTSYWMHWVRQAPGQGLEWIGVIDPSDNYINYNQKFQGRVTMTRDTSTSTVYMELSSLRSEDTAVYYCAREAWTRGYFDYWGQGTLVTVSS VL: DIQMTQSPSSLSASVGDRVTITCQASRSVRNTVAWYQQKPGKAPKLLIYYASNRYTGVPSRFSGSGSGTDFTFTISSLQPEDIATYYCQQDYRSPFTFGQGTKLEIK | 11 | 10.1 | 115 | 
4 | MTK-33.12 (antibody, V domains shown) VH: QVQLVQSGAEVKKPGASVKVSCKASGYTFVSYWMHWVRQAPGQGLEWIGVIDPSDNYINYNQKFRGRVTMTRDTSTSTVYMELSSLRSEDTAVYYCAREAGTRGYFDYWGQGTLVTVSS VL: DIQMTQSPSSLSASVGDRVTITCQASQSVSNTVAWYQQKPGKAPKLLIYYASNRYTGVPSRFSGSGSGTDFTFTISSLQPEDIATYYCRQDTRSPFTFGQGTKLELK | 8.6 | 7.9 | 230 | 
5 | MTK-33.7 (antibody, human IgG1, V domains shown) VH: QVQLVQSGAEVKKPGASVKVSCKASGYTFTSYWMHWVRQAPGQGLEWIGVIDPSDNYINYNAKFQGRVTMTRDTSTSTVYMELSSLRSEDTAVYYCAREAGTRGYFDYWGQGTLVTVSS VL: DIQMTQSPSSLSASVGDRVTITCGASQSVSNTVAWYQQKPGKAPKLLIYYASNRYTGVPSRFSGSGSGTDFTFTISSLQPEDIATYYCQQDYRSPFTFGQGTKLEIK | 78 | 78 | 800 | 
6 | MTK-33.10 (antibody, V domains shown) VH: QVQLVQSGAEVKKPGASVKVSCKASSYSFTSYWMHWVRQAPGQGLEWIGVIDPSDNYINYNQKFRGRVTMTRDTSTSTVYMELSSLRSEDTAVYYCAREAGTRGYFDYWGQGTLVTVSS VL: DIQMTQSPSSLSASVGDRVTITCQAGQSVSNTVAWYQQKPGKAPKLLIYYASNRYTGVPSRFSGSGSGTDFTFTISSLQPEDIATYYCQQDYRSPFTFGQGTKLEIK | 41 | 38 | 150 | 
7 | MTK-33.8 (antibody, human IgG1, V domains shown) VH: QVQLVQSGAEVKKPGASVKVSCKASGYTFTSYWMHWVRQAPGQGLEWIGVIDPSDNYINYNQKFQGRVTMTRDTSTSTVYMELSSLRSEDTAVYYCAREAWTRGYFNYWGQGTLVTVSS VL: DIQMTQSPSSLSASVGDRVTITCQASQSVSRTVAWYQQKPGKAPKLLIYYASNRYTGVPSRFSGSGSGTDFTFTISSLQPEDIATYYCQQDYRSPFTFGQGTKLEIK | 41 | 41 | 465 | 
8 | MTK-29.15 (antibody, human IgG1, V domains shown) VH: QVQLVQSGSELKKPGASVKVSCKASSYTFTTYGMSWVRQAPGQGLEWMGWINTMSGVPTYTDDFKGRFVFSLDTSVSTAYLQISSLKAEDTAVYYCARYTNYGVFDYWGQGTLVTVSS VL: DIQLTQSPSFPSASVGDRVTITCRASSSVGYMHWYQQKPGKAPKLLIYATSNLAQGVPSRFSGSGSGTEFTLTISSLQPEDFATYYCQQWGSLPFTFGQGTKLEIK | 7.4 | 8.4 |  | no binding (tested: 300 nM)
9 | MTK-29.10 (antibody, human IgG1, V domains shown) VH: QVQLVQSGSELKKPGASVKVSCKTSSYTFTTYGMSWVRQAPGQGLEWMGWINTYSGVPTYTDDFKGRFVFSLDTSVSTAYLQISSLKAEDTAVYYCARYTNYGVFDYWGQGTLVTVSS VL: EIVLTQSPATLSLSPGERATLSCRASSSVGYMHWYQQKPGQAPRLLIYATSNLASGIPARFSGSGSGTDFTLTISRLEPEDFAVYYCQQWGSLPFTFGGGTKLEIK | 4.5 | 4.2 | 116 | 
10 | MTK-29.18 (antibody, human IgG1, V domains shown) VH: QVQLVQSGSELKKPGASVKVSCKASGYIFTSYGLSWVRQAPGQGLEWMGWVNTYSGVPTYTDDFKGRFVFSLDTSVSTAYLQISSLKAEDTAVYYCARYTNYGVFDYWGQGTLVTVSS VL: EIVLTQSPATLSLSPGERATLSCRASSTVGYMHWYQQKPGQAPRLLIYATSNLASGIPARFSGSGSGTDFTLTISRLEPEDFAVYYCQQWGSLPFTFGGGTKLEIK | 4.7 | 4.9 | 140 | 
11 | MTK-29.17 (antibody, human IgG1, V domains shown) VH: QVQLVQSGSELKKPGASVKVSCKASGYIFTSYGLSWVRQAPGQGLEWMGWINTYSGVPTYAQGFTGRFVFSLDTSVSTAYLQISSLKAEDTAVYYCARYTNYGVFDYWGQGTLVTVSS VL: DIQLTQSPSFLSASVGDRVTITCRSSSSVGYMHWYQQKPGKAPKLLIYATSNLAQGVPSRFSGSGSGTEFTLTISSLQPEDFATYYCQQWGSLPFTFGQGTKLEIK | 9.6 | 9.9 | 170 | 
12 | MTK-29.16 (antibody, human IgG1, V domains shown) VH: QVQLVQSGSELKKPGASVKVSCKASGYIFTSYGLSWVRQAPGQGLEWMGWVNTYSGVPTYTDDFKGRFVFSLDTSVSTAYLQISSLKAEDTAVYYCARYTNYGVFDYWGQGTLVTVSS VL: DIQLTQSPSFLSASVGDRVTITCRASSSVGYMHWYQQKPGKAPKLLIYATSNLAQGVPSRFSGSGSGTEFTLTISSLQPEDFATYYCQQWGRLPFTFGQGTKLEIK | 8.6 | 8.8 | 205 | 
13 | MTK-29.11 (antibody, human IgG1, V domains shown) VH: QVQLVQSGSELKKPGASVKVSCKASSYTFTTYGMSWVRQAPGQGLEWMGWINTDSGVPTYTDDFKGRFVFSLDTSVSTAYLQISSLKAEDTAVYYCARYTNYGVFDYWGQGTLVTVSS VL: EIVLTQSPATLSLSPGERATLSCRASSSVGYMHWYQQKPGQAPRLLIYATSNLASGIPARFSGSGSGTDFTLTISRLEPEDFAVYYCQQWGSLPFTFGGGTKLEIK | 2.1 | 2.4 | 59 | 
